# Laboratory results reported in patent publication US20200347139A1 (INHIBRX BIOSCIENCES, published 2020).
# Numbering of substitutions follows the chain as printed.
# T1: mFc-CLEC12a-ECD (human)
# T1 construct: It was immobilized on anti-mFc capture sensors for BLI; also called CLEC12a antigen
# T1 chain: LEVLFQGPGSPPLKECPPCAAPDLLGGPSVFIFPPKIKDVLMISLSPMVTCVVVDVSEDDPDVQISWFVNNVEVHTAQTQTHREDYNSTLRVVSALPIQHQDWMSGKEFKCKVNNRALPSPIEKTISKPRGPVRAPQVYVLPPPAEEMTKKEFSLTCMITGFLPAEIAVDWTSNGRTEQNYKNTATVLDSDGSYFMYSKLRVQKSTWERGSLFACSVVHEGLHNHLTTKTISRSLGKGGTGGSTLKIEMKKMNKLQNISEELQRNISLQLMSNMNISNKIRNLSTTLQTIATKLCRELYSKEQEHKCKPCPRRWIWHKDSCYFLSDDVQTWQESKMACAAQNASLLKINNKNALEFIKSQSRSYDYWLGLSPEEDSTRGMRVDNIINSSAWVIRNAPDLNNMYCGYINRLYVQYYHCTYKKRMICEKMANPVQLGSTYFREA
# T2: human CLEC12a expressed on transiently transfected HEK 293 cells (human, UniProt Q5QGZ9 1-265)
# T2 construct: also called CLL-1; CLL1
# T2 sequence: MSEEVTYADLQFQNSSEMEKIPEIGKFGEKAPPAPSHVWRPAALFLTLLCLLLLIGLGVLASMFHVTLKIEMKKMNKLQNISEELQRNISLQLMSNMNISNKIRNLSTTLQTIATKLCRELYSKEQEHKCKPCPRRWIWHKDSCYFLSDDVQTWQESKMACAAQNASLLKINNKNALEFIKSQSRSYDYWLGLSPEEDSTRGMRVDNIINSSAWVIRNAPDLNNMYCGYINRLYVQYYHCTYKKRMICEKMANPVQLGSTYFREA
# B1: hzMC06v2 sdAb (VHH hzMC06v2 fused to human IgG1 xELL Fc) (Fc fusion)
# chain: EVQLVESGGGEVQPGGSLRLSCAASGFTFSVYDMNWYRQAPGKEREWVSGISNNGFSTAYAESVKGRFTISRDNAKNTLYLQMSSLRAEDTAVYYCNLDVHGRVGAQGDYWGQGTLVTVDKTHTCPPCPAPGGPSVFLFPPKPKDTLMISRTPEVTCVVVDVSHEDPEVKFNWYVDGVEVHNAKTKPREEQYNSTYRVVSVLTVLHQDWLNGKEYKCKVSNKALPAPIEKTISKAKGQPREPQVYTLPPSRDELTKNQVSLTCLVKGFYPSDIAVEWESNGQPENNYKTTPPVLDSDGSFFLYSKLTVDKSRWQQGNVFSCSVMHEALHNHYTQKSLSLSPGK
# notes: Humanized version of MC06; No linker is stated; also called hzMC06v2-IgG1
# B2: hzMC02v6 sdAb (VHH hzMC02v6 fused to human IgG1 xELL Fc) (Fc fusion)
# chain: EVQLVESGGGEVQPGGSLRLSCAASGFTFRINDMGWYRQAPGKECEMVAGISNNGFSTAYAESVKGRFTISRDNAKNTVYLQMSSLRAEDTAVYYCHRTDEGAAHACSRGQGTLVTVDKTHTCPPCPAPGGPSVFLFPPKPKDTLMISRTPEVTCVVVDVSHEDPEVKFNWYVDGVEVHNAKTKPREEQYNSTYRVVSVLTVLHQDWLNGKEYKCKVSNKALPAPIEKTISKAKGQPREPQVYTLPPSRDELTKNQVSLTCLVKGFYPSDIAVEWESNGQPENNYKTTPPVLDSDGSFFLYSKLTVDKSRWQQGNVFSCSVMHEALHNHYTQKSLSLSPGK
# notes: Humanized version of MC02; No linker is stated; also called hzMC02v6-IgG1
# B3: hzMH07v3 sdAb (VHH hzMH07v3 fused to human IgG1 xELL Fc) (Fc fusion)
# chain: EVQLVESGGGEVQPGGSLRLSCAASGLLFSIYDMNWYRQAPGKEREWVAGITNNGYSTAYAESVKGRFTISRDNAKNTVYLQMSSLRAEDTAVYYCHTDEWGREYWGQGTLVTVDKTHTCPPCPAPGGPSVFLFPPKPKDTLMISRTPEVTCVVVDVSHEDPEVKFNWYVDGVEVHNAKTKPREEQYNSTYRVVSVLTVLHQDWLNGKEYKCKVSNKALPAPIEKTISKAKGQPREPQVYTLPPSRDELTKNQVSLTCLVKGFYPSDIAVEWESNGQPENNYKTTPPVLDSDGSFFLYSKLTVDKSRWQQGNVFSCSVMHEALHNHYTQKSLSLSPGK
# notes: Humanized version of MH07; No linker is stated; also called hzMH07v3-IgG1; haMH07v3
# B4: MC06 sdAb (VHH MC06 fused to human IgG1 xELL Fc) (Fc fusion)
# chain: QVQLQESGGGLVQPGGSLRLSCAASGFTFSVYDMNWYRQTPGKEREWVAGISNNGFSTAYAGSVKGRFTISRDNAENTVYLQMNSLKSEDTAVYYCNLDVHGRVGAQGDYWGQGTQVTVDKTHTCPPCPAPGGPSVFLFPPKPKDTLMISRTPEVTCVVVDVSHEDPEVKFNWYVDGVEVHNAKTKPREEQYNSTYRVVSVLTVLHQDWLNGKEYKCKVSNKALPAPIEKTISKAKGQPREPQVYTLPPSRDELTKNQVSLTCLVKGFYPSDIAVEWESNGQPENNYKTTPPVLDSDGSFFLYSKLTVDKSRWQQGNVFSCSVMHEALHNHYTQKSLSLSPGK
# notes: Camelid parental VHH; No linker is stated; also called MC06-IgG1
# B5: hzME06v16 sdAb (VHH hzME06v16 fused to human IgG1 xELL Fc) (Fc fusion)
# chain: EVQLVESGGGEVQPGGSLRLSCAASGFTFDDYAIGWFRQAPGKEREGVSTISSSDGSTYYAESVKGRFTISRDNAKNTVYLQMSSLRAEDTAVYYCALREGLPLLLDTLWRQPVEYDYWGQGTQVTVDKTHTCPPCPAPGGPSVFLFPPKPKDTLMISRTPEVTCVVVDVSHEDPEVKFNWYVDGVEVHNAKTKPREEQYNSTYRVVSVLTVLHQDWLNGKEYKCKVSNKALPAPIEKTISKAKGQPREPQVYTLPPSRDELTKNQVSLTCLVKGFYPSDIAVEWESNGQPENNYKTTPPVLDSDGSFFLYSKLTVDKSRWQQGNVFSCSVMHEALHNHYTQKSLSLSPGK
# notes: Humanized version of ME06; No linker is stated; also called hzME06v16-IgG1
# B6: ME02 sdAb (VHH ME02 fused to human IgG1 xELL Fc) (Fc fusion)
# chain: QVQLQQSGGGLVQVGGSQRLSCAASGRTFEYDDMVWFRQAPGKEREEVAGISWSGGSIYYADSVKGRFSISRDNAKNTVYLEMNRLKPEDTAVYYCNVGSYWGQGTQVTVDKTHTCPPCPAPGGPSVFLFPPKPKDTLMISRTPEVTCVVVDVSHEDPEVKFNWYVDGVEVHNAKTKPREEQYNSTYRVVSVLTVLHQDWLNGKEYKCKVSNKALPAPIEKTISKAKGQPREPQVYTLPPSRDELTKNQVSLTCLVKGFYPSDIAVEWESNGQPENNYKTTPPVLDSDGSFFLYSKLTVDKSRWQQGNVFSCSVMHEALHNHYTQKSLSLSPGK
# notes: Camelid parental VHH; No linker is stated; also called ME02-IgG1
# B7: hzME02v4 sdAb (VHH hzME02v4 fused to human IgG1 xELL Fc) (Fc fusion)
# chain: B6 chain with Q1E, Q5V, Q6E, L11E, V14P, Q18L, D62E, Q107L
# notes: Humanized version of ME02; No linker is stated; also called hzME02v4-IgG1
# B8: MB11 sdAb (VHH MB11 fused to human IgG1 xELL Fc) (Fc fusion)
# chain: QVQLQQSGGGLVQPGGSLRLSCVASGFLFSIYDMNWYRQAPGKEREWIAGITNNGYSTAYTDSVQGRFTISRDNAKNTIYLQMTSLKPEDTAVYYCHADLTKCYDGEYAWGQGTQVTVDKTHTCPPCPAPGGPSVFLFPPKPKDTLMISRTPEVTCVVVDVSHEDPEVKFNWYVDGVEVHNAKTKPREEQYNSTYRVVSVLTVLHQDWLNGKEYKCKVSNKALPAPIEKTISKAKGQPREPQVYTLPPSRDELTKNQVSLTCLVKGFYPSDIAVEWESNGQPENNYKTTPPVLDSDGSFFLYSKLTVDKSRWQQGNVFSCSVMHEALHNHYTQKSLSLSPGK
# notes: Camelid parental VHH; No linker between VHH and Fc is stated; Fc dimers are described only in general terms; also called MB11-IgG1
# B9: ME06 sdAb (VHH ME06 fused to human IgG1 xELL Fc) (Fc fusion)
# chain: QVQLVQSGGGLVQAGGSLRLSCVASGFTFDDYAIGWFRQAPGKEREGVSCISNSDGSTYYADSVKGRFTISSDNAKNTVYLHVNSLNPEDTAVYYCALREGLPLLLDSLWRQPVEYDYWGQGTQVTVDKTHTCPPCPAPGGPSVFLFPPKPKDTLMISRTPEVTCVVVDVSHEDPEVKFNWYVDGVEVHNAKTKPREEQYNSTYRVVSVLTVLHQDWLNGKEYKCKVSNKALPAPIEKTISKAKGQPREPQVYTLPPSRDELTKNQVSLTCLVKGFYPSDIAVEWESNGQPENNYKTTPPVLDSDGSFFLYSKLTVDKSRWQQGNVFSCSVMHEALHNHYTQKSLSLSPGK
# notes: Camelid parental VHH; No linker is stated; also called ME06-IgG1
# B10: MC02 sdAb (VHH MC02 fused to human IgG1 xELL Fc) (Fc fusion)
# chain: QVQLVQSGGGLAQPGGSLRLSCTASGFTFRINDMGWYRQAPGKECEMVAGISNNGFSTAYADSVKGRFTISRDNAKNTVSLQMDSLKSEDTAVYYCHRTDDGAAHACSRGQGTQVTVDKTHTCPPCPAPGGPSVFLFPPKPKDTLMISRTPEVTCVVVDVSHEDPEVKFNWYVDGVEVHNAKTKPREEQYNSTYRVVSVLTVLHQDWLNGKEYKCKVSNKALPAPIEKTISKAKGQPREPQVYTLPPSRDELTKNQVSLTCLVKGFYPSDIAVEWESNGQPENNYKTTPPVLDSDGSFFLYSKLTVDKSRWQQGNVFSCSVMHEALHNHYTQKSLSLSPGK
# notes: Camelid parental VHH; No linker is stated; also called MC02-IgG1
# B11: MH07 sdAb (VHH MH07 fused to human IgG1 xELL Fc) (Fc fusion)
# chain: QVQLVQSGGGLVQPGGSLRLSCVASGLLFSIYDMNWYRQAPGKEREWIAGITNNGYSTAYTDSVQGRFTISRDNAKNTVYLQMNSLKPEDTAVYYCHTDEWGREYWGQGTQVTVDKTHTCPPCPAPGGPSVFLFPPKPKDTLMISRTPEVTCVVVDVSHEDPEVKFNWYVDGVEVHNAKTKPREEQYNSTYRVVSVLTVLHQDWLNGKEYKCKVSNKALPAPIEKTISKAKGQPREPQVYTLPPSRDELTKNQVSLTCLVKGFYPSDIAVEWESNGQPENNYKTTPPVLDSDGSFFLYSKLTVDKSRWQQGNVFSCSVMHEALHNHYTQKSLSLSPGK
# notes: Camelid parental VHH; No linker is stated; also called MH07-IgG1
# Target: T1, mFc-CLEC12a-ECD
# Test: BLI epitope binning; mFc-CLEC12a-ECD on anti-mFc sensors, 100 nM sdAb
# Description: (§1) The epitopes of single domain antibodies (sdAbs) that comprise VHH domains that bind CLEC12a were compared using Bio-Layer Interferometry. 7 μg/mL of mFc-CLEC12a-ECD (SEQ ID NO: 87) was immobilized on anti-mFc coated capture sensors. 100 nM of one sdAb was then loaded onto the CLEC12a antigen and allowed to come to equilibrium. The sensors were then transferred into 100 nM of a second sdAb.
row,Binder,binding result
1,B1,binds
2,B2,binds
3,B3,binds

# Target: T2, human CLEC12a expressed on transiently …
# Test: flow cytometry on HEK 293 cells transfected with human CLEC12a; apparent Kd, one-site fit
# Description: (§2) Binding of sdAbs to human CLEC12a was assessed by flow cytometry. […] HEK 293 cells were transiently transfected with a plasmid encoding CLEC12a (UniProt Accession No. Q5QGZ9.3; SEQ ID NO: 1) and used as the positive cell line, and untransfected HEK 293 cells were used as CLEC12a-negative cells. Each cell type was plated at 30,000 cells/well in FACS buffer (PBS 1% BSA, 0.1% NaN₃ pH 7.4) on a 96-well round-bottom plate. The sdAbs were diluted in FACS buffer in a 3-fold, 11 point serial dilution. The sdAb dilutions were added to the plated cells, and assay plates were incubated for 30 minutes at 4° C. After washing twice in 150 μL of FACS buffer, cells in each well were resuspended in 100 μL of 1:2000 Alexa Fluor 647-conjugated Anti-Human IgG secondary diluted in FACS buffer and incubated at 4° C. for 30 minutes. The cells were washed twice more, then bound antibody was detected by flow cytometry.
# (§3) Flow cytometric analysis was performed on an Intellicyte iQue Plus and fluorescence was plotted as median fluorescence intensity. The apparent affinity (Kd, nM) was determined using one site binding non-linear regression in PRISM graph software.
row,Binder,Kd [pM]
1,B4,1580
2,B1,14000
3,B5,60
4,B6,1200
5,B7,870
6,B8,58600
7,B9,50
8,B10,370
9,B2,350
10,B11,100
11,B3,280

# Target: T1, mFc-CLEC12a-ECD
# Test: BLI, mFc-CLEC12a-ECD on anti-mFc sensors first loaded with 100 nM hzMB11v13, then 100 nM second sdAb
# Description: as §1
row,Binder,binding result
1,B5,binds
2,B7,binds

# Target: T2, human CLEC12a expressed on transiently …
# Test: flow cytometry on HEK 293 cells transiently transfected with human CLEC12a, Alexa Fluor 647 anti-human IgG secondary, median fluorescence
# Description: as §2, §3
row,Binder,EC50 (read off the curve) [pM]
1,B4,1000 to 2000
2,B1,~10000
3,B6,~1000
4,B7,~800
5,B8,~50000
